Molecular target: NC4-antiserum (rabbit polyclonal antiserum against the collagen alpha1 (IX) NC4-peptide coupled to KLH)
Test: inhibition ELISA: free NC4-peptide against binding of NC4-antiserum to solid-phase NC4-peptide

How did the peptide concentration showing efficient inhibition of the binding turn out when H-CGQDDLPGFDLISQFQ-NH2 [NC4-peptide NH2-…^64-CONH2] was run?
Its peptide concentration showing efficient inhibition of the binding is 0.3 ng/mL.
